Experimental data as given in patent US20250019427A1 (BYOMASS, published 2025).
Changes are numbered by the printed parent chain.

T1: Cyno GDF15 Fc (cyno, UniProt G7PWZ3 193-308)
T1 construct: also called cyno GDF15-Fc fusion
T1 sequence: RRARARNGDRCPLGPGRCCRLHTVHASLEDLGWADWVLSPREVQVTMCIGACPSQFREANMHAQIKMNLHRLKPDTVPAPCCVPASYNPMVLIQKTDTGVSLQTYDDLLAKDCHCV

T2: Rat GDF-15 Fc (rat, UniProt Q9Z0J6 189-303, limits assumed)
T2 sequence (looked up): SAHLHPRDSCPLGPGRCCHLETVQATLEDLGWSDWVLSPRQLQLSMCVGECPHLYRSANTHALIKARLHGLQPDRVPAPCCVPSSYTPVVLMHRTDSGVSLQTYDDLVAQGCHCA

T3: Mouse GDF15 Fc (mouse, UniProt Q9Z0J7 189-303, limits assumed)
T3 construct: also called mouse GDF15Fc fusion
T3 sequence (looked up): T2 sequence (looked up) with L4A, L63Q, R75K, Q110R

T4: GDF15 (Homo sapiens (Human), UniProt Q99988 30-308)
T4 sequence: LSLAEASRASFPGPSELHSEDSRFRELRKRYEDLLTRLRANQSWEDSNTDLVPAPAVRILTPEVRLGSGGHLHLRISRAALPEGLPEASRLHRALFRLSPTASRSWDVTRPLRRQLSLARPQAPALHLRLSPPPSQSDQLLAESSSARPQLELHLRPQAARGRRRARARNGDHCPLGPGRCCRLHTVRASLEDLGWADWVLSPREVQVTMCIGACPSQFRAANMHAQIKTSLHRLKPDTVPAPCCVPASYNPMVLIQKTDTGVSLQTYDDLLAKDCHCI

T5: GDF10 (UniProt P55107 369-478)
T5 sequence (looked up): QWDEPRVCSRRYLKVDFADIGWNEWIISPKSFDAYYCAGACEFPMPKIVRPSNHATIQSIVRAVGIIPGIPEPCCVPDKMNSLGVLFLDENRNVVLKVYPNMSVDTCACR

T6: GDNF (UniProt P39905 78-211)
T6 sequence (looked up): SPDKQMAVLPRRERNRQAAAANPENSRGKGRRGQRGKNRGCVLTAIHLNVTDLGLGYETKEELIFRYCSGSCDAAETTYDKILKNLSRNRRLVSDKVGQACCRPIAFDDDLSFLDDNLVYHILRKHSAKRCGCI

T7: Human Activin B (human, UniProt P09529 293-407)
T7 construct: Also used for the Activin B ligand of the ActRIIB/SMAD reporter assay, where the species is not restated
T7 sequence (looked up): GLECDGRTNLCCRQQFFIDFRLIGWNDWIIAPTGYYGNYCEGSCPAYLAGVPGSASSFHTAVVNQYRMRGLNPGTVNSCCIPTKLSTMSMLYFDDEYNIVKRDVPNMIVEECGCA

T8: Human BMP9 (human, UniProt Q9UK05 320-429)
T8 sequence (looked up): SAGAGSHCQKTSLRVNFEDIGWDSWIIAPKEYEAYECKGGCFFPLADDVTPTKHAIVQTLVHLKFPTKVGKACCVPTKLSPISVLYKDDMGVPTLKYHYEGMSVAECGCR

T9: Human BMP10 (human, UniProt O95393 317-424)
T9 sequence (looked up): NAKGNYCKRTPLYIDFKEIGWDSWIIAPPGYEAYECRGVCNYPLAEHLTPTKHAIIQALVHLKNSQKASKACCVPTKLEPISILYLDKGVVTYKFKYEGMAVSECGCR

T10: Human Activin A Fc (human, UniProt P08476 311-426)
T10 sequence (looked up): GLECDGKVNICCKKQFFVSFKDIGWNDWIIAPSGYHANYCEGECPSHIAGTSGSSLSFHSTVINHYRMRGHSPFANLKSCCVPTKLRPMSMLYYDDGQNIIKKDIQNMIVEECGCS

B1: Clone B IgG (antibody, V domains shown)
VH: QVQLQESGPGLVKPSQTLSLTCTVSGGSISSGGIYWTWIRQHPGKGLEWIGAIAYSGSTYYNPSLKSRVTISVDTSKNQFSLKLSSVTAADTAVYYCARGIEYQHFDYWGQGTLVTVSS
VL: not shown
notes: IgG format; AAGA mutation in the Fc region stated for the FcRn test; also called GDF15 antibody agent Clone B
B2: Clone R IgG (antibody, V domains shown)
VH: B1 VH with K66E
VL: not shown
notes: IgG format
B3: Clone Q IgG (antibody, V domains shown)
VH: B1 VH
VL: not shown
notes: IgG format
B4: Clone C IgG (antibody, V domains shown)
VH: B1 VH with I34Y, T37S, A54V, S58H, I101V, D107S, Y108L
VL: not shown
notes: IgG format; AAGA mutation in the Fc region stated for the FcRn test; also called GDF15 antibody agent Clone C
B5: Clone D IgG (antibody, V domains shown)
VH: B1 VH with S30N, I34Y, A54Y, Y60V, I101V, D107N, Y108E
VL: not shown
notes: IgG format
B6: Clone E IgG (antibody, V domains shown)
VH: QVQLVQSGAEVKKPGASVKVSCKASGYTFTSYGINWVRQAPGQGLEWMGWITAYSGDTNYAQKLQGRVTMTTDTSTSTAYMELRSLRSDDTAVYYCARGPGQYADVDVWGQGTMVTVSS
VL: DIQMTQSPSSVSASVGDRVTITCRASQGISSWLAWYQQKPGKAPKLLIYAASSLQSGVPSRFSGSGSGTDFTLTISSLQPEDFATYYCQQANSFPITFGGGTKVEIKR
notes: IgG format
B7: Clone O IgG (antibody, V domains shown)
VH: QVQLVQSGAEVKKPGATVKVSCKASGYTFDSLGMSWVRQAPGQGLEWMGYISTYSGDTVYAQKLQGRVTMTTDTSTSTAYMELRSLRSDDTAVYYCARESGQQVSALDPWGQGTLVTVSS
VL: B6 VL with S31R, A91G, N92A, I96L
notes: IgG format
B8: Clone I IgG (antibody, V domains shown)
VH: B6 VH with S31D, Y32E, N59V
VL: B6 VL
notes: IgG format
B9: Clone N IgG (antibody, V domains shown)
VH: QVQLVQSGAEVKKPGASVKVSCKASGYTFTDYGIFWVRQAPGQGLEWMGWITAYSGDTHYAQKLQGRVTMTTDTSTSTAYMELRSLRSDDTAVYYCVRDTQYGGSPYWGQGTLVTVSS
VL: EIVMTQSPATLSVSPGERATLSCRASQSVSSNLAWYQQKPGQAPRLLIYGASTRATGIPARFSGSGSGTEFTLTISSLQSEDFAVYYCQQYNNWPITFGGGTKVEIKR
notes: IgG format

How the values were obtained:
[1] = target: T1, Cyno GDF15 Fc; experiment: Octet BLI, IgG on AHC tip, avid
Method: (§1) Briefly, ForteBio affinity measurements were performed by loading IgGs on-line onto AHC sensors. Sensors were equilibrated off-line in assay buffer for 30 min and then monitored on-line for 60 seconds for baseline establishment. Sensors with loaded IgGs were exposed to 100 nM antigen for 3 minutes, and afterwards were transferred to assay buffer for 3 min for off-rate measurement. All kinetics were analyzed using the 1:1 binding model.

[2] = target: T2, Rat GDF-15 Fc; experiment: Octet BLI, IgG on AHC tip, avid
Method: as §1

[3] = target: T3, Mouse GDF15 Fc; experiment: Octet BLI, IgG on AHC tip, avid
Method: as §1

[4] = target: T4, GDF15; experiment: cell-based or functional assay
[5] = target: T5, GDF10; experiment: Octet BLI, IgG on tip, avid
[6] = target: T11, GDF11 (UniProt O95390 299-407); experiment: Octet BLI, IgG on tip, avid
T11 construct: Also the GDF-11 ligand of the ActRIIB/SMAD reporter assay

[7] = target: GDF8 (UniProt O14793 267-375); experiment: Octet BLI, IgG on tip, avid
[8] = target: T6, GDNF; experiment: Octet BLI, IgG on tip, avid
[9] = target: T7, Human Activin B; experiment: Octet BLI, IgG on tip, avid
[10] = target: T8, Human BMP9; experiment: Octet BLI, IgG on tip, avid; P.F. = binder with poor fit
[11] = target: T9, Human BMP10; experiment: Octet BLI, IgG on tip, avid
[12] = target: T10, Human Activin A Fc; experiment: Octet BLI, IgG on tip, avid
[13] = target: T5, GDF10; experiment: Octet BLI, IgG on tip, avid; P.F. = binder with poor fit
[14] = target: T8, Human BMP9; experiment: Octet BLI, IgG on tip, avid

T11 sequence (O95390 299-407 limits assumed): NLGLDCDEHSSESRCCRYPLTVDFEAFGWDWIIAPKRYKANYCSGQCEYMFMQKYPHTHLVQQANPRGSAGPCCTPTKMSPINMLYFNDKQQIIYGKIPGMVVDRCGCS

Binder | Kd [1] [nM] | Kd [2] [nM] | Kd [3] [nM] | GDF15 - GFRAL RET pERK IC50 (pM) [4] [pM] | GDF15 - GFRAL-RET Luciferase IC50 (pM) [4] [pM] | binding result [5] | binding result [6] | binding result [7] | binding result [8] | Kd [9] [nM] | binding result [10] | binding result [11] | Kd [12] [nM] | binding result [9] | binding result [13] | binding result [12] | binding result [14] | Kd [5] [nM] | Kd [8] [nM]
B1 | 0.422 | 0.621 | 0.358 | 104 | 66.2 | no binding (tested: 100 nM) | no binding (tested: 100 nM) | no binding (tested: 100 nM) | no binding (tested: 100 nM) | 145 | binds |  |  |  |  |  |  |  | 
B2 |  |  |  |  |  | no binding (tested: 100 nM) | no binding (tested: 100 nM) | no binding (tested: 100 nM) | no binding (tested: 100 nM) | 188 | binds |  |  |  |  |  |  |  | 
B3 |  |  |  |  |  | no binding (tested: 100 nM) | no binding (tested: 100 nM) | no binding (tested: 100 nM) | no binding (tested: 100 nM) | 172 | binds | no binding (tested: 100 nM) |  |  |  |  |  |  | 
B4 | 0.0862 | 0.437 | 0.331 | 145 | 39.6 |  | no binding (tested: 100 nM) | no binding (tested: 100 nM) | no binding (tested: 100 nM) | 132 | binds | no binding (tested: 100 nM) | 6.48 |  |  |  |  |  | 
B5 | 0.141 | 0.467 | 0.299 | 50.4 | 58.7 |  | no binding (tested: 100 nM) | no binding (tested: 100 nM) | no binding (tested: 100 nM) |  | binds | no binding (tested: 100 nM) | 7.87 | no binding (tested: 100 nM) | binds |  |  |  | 
B6 | 0.178 | 0.451 | 0.194 | 35 | 190 | no binding (tested: 100 nM) | no binding (tested: 100 nM) | no binding (tested: 100 nM) | no binding (tested: 100 nM) |  |  | no binding (tested: 100 nM) |  | no binding (tested: 100 nM) |  | no binding (tested: 100 nM) | no binding (tested: 100 nM) |  | 
B7 |  |  |  |  | 150 |  | no binding (tested: 100 nM) | no binding (tested: 100 nM) | no binding (tested: 100 nM) |  |  | no binding (tested: 100 nM) |  | no binding (tested: 100 nM) |  | no binding (tested: 100 nM) | no binding (tested: 100 nM) | 26.7 | 
B8 | 3.04 | 1.18 | 0.152 | 34.5 | 79.3 | no binding (tested: 100 nM) | no binding (tested: 100 nM) | no binding (tested: 100 nM) |  |  |  | no binding (tested: 100 nM) |  | no binding (tested: 100 nM) |  | no binding (tested: 100 nM) | no binding (tested: 100 nM) |  | 
B9 | 0.219 | 0.358 | 0.219 | 99.7 |  | no binding (tested: 100 nM) | no binding (tested: 100 nM) | no binding (tested: 100 nM) |  |  |  | no binding (tested: 100 nM) |  | no binding (tested: 100 nM) |  | no binding (tested: 100 nM) | no binding (tested: 100 nM) |  | 2.56
